Experimental data published in publication PMC11388081, “Targeted degradation of VEGF with bispecific aptamer-based LYTACs ameliorates pathological retinal angiogenesis”.

Biological target: VEGF (HZ-1038, Proteintech) (UniProt P15692-4 27-191)
Test: MST; strongest of V4-V6; Kd only in figure; 20 mM CaCl2; MST: 5 nM Cy5-LYTAC, 20 mM Tris-HCl pH 8.5, 20 mM KCl, 20 mM CaCl2, 0.1% Tween 20, 10 min, temperature not stated; pulldown: cell lysate with LYTAC in DPBS-Mg
Details: protein: commercial; chain copies: 2; biotin implied in pulldown; 23-bp linker duplex formed by both 5' ends, 3' single-stranded aptamer tails

Sequence of VEGF (HZ-1038, Proteintech) (P15692 other isoform, or with tags, fused parts or gaps): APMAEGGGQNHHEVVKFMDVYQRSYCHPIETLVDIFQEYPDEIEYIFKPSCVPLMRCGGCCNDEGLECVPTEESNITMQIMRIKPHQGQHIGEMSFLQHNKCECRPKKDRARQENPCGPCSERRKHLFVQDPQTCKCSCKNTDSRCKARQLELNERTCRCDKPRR

B1: V5 (M6PR-A / VEGF-A2 LYTAC) (mixed)
DNA 1: CCCCCACACGTAAATCAGTCATAGGGCGCGTAGATGACGAGCAGTCCTAACATCGTTTAGGAC
DNA 2: TATGACTGATTTACGTGTGGGGGTGTGGGGGTGGACGGGCCGGGTAGA
modifications: 5'-phosphate on strand 1 (T4 DNA ligase step stated)
binding result: binds
